B1: S. cerevisiae regulatory subunit primase 2 (Pri2) (natural protein, UniProt P20457 1-528, looked up)
chain: MFRQSKRRIASRKNFSSYDDIVKSELDVGNTNAANQIILSSSSSEEEKKLYARLYESKLSFYDLPPQGEITLEQFEIWAIDRLKILLEIESCLSRNKSIKEIETIIKPQFQKLLPFNTESLEDRKKDYYSHFILRLCFCRSKELREKFVRAETFLFKIRFNMLTSTDQTKFVQSLDLPLLQFISNEEKAELSHQLYQTVSASLQFQLNLNEEHQRKQYFQQEKFIKLPFENVIELVGNRLVFLKDGYAYLPQFQQLNLLSNEFASKLNQELIKTYQYLPRLNEDDRLLPILNHLSSGYTIADFNQQKANQFSENVDDEINAQSVWSEEISSNYPLCIKNLMEGLKKNHHLRYYGRQQLSLFLKGIGLSADEALKFWSEAFTRNGNMTMEKFNKEYRYSFRHNYGLEGNRINYKPWDCHTILSKPRPGRGDYHGCPFRDWSHERLSAELRSMKLTQAQIISVLDSCQKGEYTIACTKVFEMTHNSASADLEIGEQTHIAHPNLYFERSRQLQKKQQKLEKEKLFNNGNH
notes: DNA primase large (regulatory) subunit Pri2, S. cerevisiae (Pri2-NTD, 20-residue linker, Pri2-CTD with a 4Fe-4S cluster); intact complex without truncations; also called p58; PriL

Test [1] addresses T1, S. cerevisiae DNA polymerase catalytic subunit Pol1 (S. cerevisiae, UniProt P13382 1-1468).
T1 construct: DNA polymerase alpha catalytic subunit Pol1, S. cerevisiae, aa 1-1468 (Pol1-NTD aa 1-348, Pol1-core aa 349-1259, Pol1-CTD aa 1260-1468); intact complex without truncations; also called DNA polymerase 1; p180
T1 sequence (looked up): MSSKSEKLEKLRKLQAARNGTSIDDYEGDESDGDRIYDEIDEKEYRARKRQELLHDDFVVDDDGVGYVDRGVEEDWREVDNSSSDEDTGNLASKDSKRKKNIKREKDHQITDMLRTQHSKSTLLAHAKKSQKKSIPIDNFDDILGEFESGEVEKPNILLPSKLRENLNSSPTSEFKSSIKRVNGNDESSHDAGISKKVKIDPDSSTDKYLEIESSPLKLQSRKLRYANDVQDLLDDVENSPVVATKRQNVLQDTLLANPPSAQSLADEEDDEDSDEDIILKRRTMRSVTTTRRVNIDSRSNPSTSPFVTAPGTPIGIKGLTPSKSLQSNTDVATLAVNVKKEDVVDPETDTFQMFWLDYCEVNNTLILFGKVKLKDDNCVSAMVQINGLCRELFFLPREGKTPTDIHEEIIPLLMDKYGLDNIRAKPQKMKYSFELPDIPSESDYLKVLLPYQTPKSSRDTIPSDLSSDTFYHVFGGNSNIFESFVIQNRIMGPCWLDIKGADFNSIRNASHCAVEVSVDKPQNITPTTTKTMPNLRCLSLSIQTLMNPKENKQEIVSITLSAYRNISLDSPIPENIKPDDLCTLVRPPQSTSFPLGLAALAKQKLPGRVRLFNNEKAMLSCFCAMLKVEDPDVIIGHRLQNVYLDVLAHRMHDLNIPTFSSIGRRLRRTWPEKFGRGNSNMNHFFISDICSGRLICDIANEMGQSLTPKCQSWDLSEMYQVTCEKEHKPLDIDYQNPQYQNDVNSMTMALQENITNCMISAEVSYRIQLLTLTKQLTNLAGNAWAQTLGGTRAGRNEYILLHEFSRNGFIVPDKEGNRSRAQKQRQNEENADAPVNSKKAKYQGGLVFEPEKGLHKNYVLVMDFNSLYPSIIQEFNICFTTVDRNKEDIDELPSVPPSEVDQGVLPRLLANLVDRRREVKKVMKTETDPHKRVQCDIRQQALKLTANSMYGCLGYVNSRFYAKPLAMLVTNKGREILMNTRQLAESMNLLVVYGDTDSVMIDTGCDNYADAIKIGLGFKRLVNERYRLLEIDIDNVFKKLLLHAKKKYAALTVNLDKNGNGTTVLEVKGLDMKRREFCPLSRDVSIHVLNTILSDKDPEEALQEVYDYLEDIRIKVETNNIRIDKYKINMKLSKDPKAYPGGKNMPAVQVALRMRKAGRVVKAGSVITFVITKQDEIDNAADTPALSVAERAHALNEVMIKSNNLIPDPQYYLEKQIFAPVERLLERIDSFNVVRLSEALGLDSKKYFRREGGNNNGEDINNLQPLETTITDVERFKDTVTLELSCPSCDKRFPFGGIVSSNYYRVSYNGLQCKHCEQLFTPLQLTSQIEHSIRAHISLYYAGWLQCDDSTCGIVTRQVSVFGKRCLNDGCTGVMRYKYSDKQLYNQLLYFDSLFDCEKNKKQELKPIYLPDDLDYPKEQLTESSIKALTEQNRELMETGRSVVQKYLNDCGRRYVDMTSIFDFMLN
Description: cryo-EM structure; purified yeast Pol α-primase alone (apo state, conformers I and II, 3.7 and 3.8 Å); ~1 mg/ml; 50 mM HEPES pH 7.5, 50 mM KGlu, 200 mM KAcetate, 1 mM DTT, 4 mM MgCl2. To be noted: both partners purified.

Test [2] deals with B1. The description is as above. The note with it: both partners purified.

As for B1, in test [1], the binding result was “binds”.

B2: S. cerevisiae catalytic primase 1 (Pri1) (natural protein, UniProt P10363 1-409, looked up)
chain: MTNSVKTNGPSSSDMEYYYKSLYPFKHIFNWLNHSPKPSRDMINREFAMAFRSGAYKRYNSFNSVQDFKAQIEKANPDRFEIGAIYNKPPRERDTLLKSELKALEKELVFDIDMDDYDAFRTCCSGAQVCSKCWKFISLAMKITNTALREDFGYKDFIWVFSGRRGAHCWVSDKRARALTDVQRRNVLDYVNVIRDRNTDKRLALKRPYHPHLARSLEQLKPFFVSIMLEEQNPWEDDQHAIQTLLPALYDKQLIDSLKKYWLDNPRRSSKEKWNDIDQIATSLFKGPKQDSHIIKLRECKEDLVLMTLYPKLDVEVTKQTIHLLKAPFCIHPATGNVCVPIDESFAPEKAPKLIDLQTEMEKNNDVSLTALQPFINQFQAYVSSLLKNELGSVKREREDDDEPASLDF
notes: DNA primase small (catalytic) subunit Pri1, S. cerevisiae; intact complex without truncations; also called p49; PriS
For B2, the binding result in test [1] and in test [2] was “binds” throughout.

B3: S. cerevisiae polymerase accessory subunit Pol12 (natural protein, UniProt P38121 1-705, looked up)
chain: MSGSIDVITHFGPDADKPEIITALENLTKLHALSVEDLYIKWEQFSNQRRQTHTDLTSKNIDEFKQFLQLQMEKRANQISSSSKVNTSTKKPVIKKSLNSSPLFGLSIPKTPTLKKRKLHGPFSLSDSKQTYNVGSEAETNEKGNSSLKLEFTPGMAEDAVGDSAPLSHAKSSDAKTPGSSTFQTPTTNTPTTSRQNVPAGEILDSLNPENIEISSGNPNVGLLSTEEPSYNQVKVEPFYDAKKYKFRTMRQNLQEASDVLDDQIESFTKIIQNHYKLSPNDFADPTIQSQSEIYAVGRIVPDSPTYDKFLNPESLSLETSRMGGVGRRVRLDLSQVNELSFFLGQIVAFKGKNANGDYFTVNSILPLPYPNSPVSTSQELQEFQANLEGSSLKVIVTCGPYFANDNFSLELLQEFIDSINNEVKPHVLIMFGPFIDITHPLIASGKLPNFPQFKTQPKTLDELFLKLFTPILKTISPHIQTVLIPSTKDAISNHAAYPQASLIRKALQLPKRNFKCMANPSSFQINEIYFGCSNVDTFKDLKEVIKGGTTSSRYRLDRVSEHILQQRRYYPIFPGSIRTRIKPKDVSTKKETNDMESKEEKVYEHISGADLDVSYLGLTEFVGGFSPDIMIIPSELQHFARVVQNVVVINPGRFIRATGNRGSYAQITVQCPDLEDGKLTLVEGEEPVYLHNVWKRARVDLIAS
notes: intact complex without truncations; also called p70; B-subunit
As to B3, the binding result in test [1] is “binds”.

Source of the values: PMC10284912, “Molecular choreography of primer synthesis by the eukaryotic Pol α-primase” (Nature Communications, 2023).
